{"source": "patent US7432061B2", "about": "“Assays for measuring matrix metalloproteinase activities” (BioZyme, Inc., priority 2002, dated 2008)", "target": "T1, collagenase 1 (Homo sapiens, UniProt P03956)", "T1 sequence (P03956 100-469)": "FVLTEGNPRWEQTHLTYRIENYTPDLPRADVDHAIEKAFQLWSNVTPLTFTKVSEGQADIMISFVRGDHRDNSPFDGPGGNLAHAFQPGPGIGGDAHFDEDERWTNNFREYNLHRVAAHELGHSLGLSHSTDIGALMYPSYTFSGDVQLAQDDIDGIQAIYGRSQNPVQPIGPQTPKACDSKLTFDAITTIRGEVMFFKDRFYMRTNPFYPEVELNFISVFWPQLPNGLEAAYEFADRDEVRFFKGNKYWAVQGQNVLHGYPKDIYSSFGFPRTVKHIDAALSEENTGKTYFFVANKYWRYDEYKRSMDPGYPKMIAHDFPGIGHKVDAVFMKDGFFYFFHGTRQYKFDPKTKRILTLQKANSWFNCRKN", "test": "Inhibition with type II collagen, FlSub3 cleavage", "assay_type": "biochemical", "details": "for Improvement In Selectivity (Col-1 v Col-3): 44 ug/ml Type II Collagen vs no Type II Collagen, FlSb3; for Average Percent Inhibition from 1.1 to 6.6 Hours / Average Percent Inhibition: COL1(1.25 nM)"}
{"substance": "Type II Collagen: bovine type II collagen, full length MMP substrate used as inhibitor of gelatinases", "values": [{"measurement": "Improvement In Selectivity (Col-1 v Col-3)", "value": 2.5, "unit": "fold"}, {"measurement": "Improvement In Selectivity (Col-1 v Col-3)", "setting": "listed as collagen", "value": "four"}, {"measurement": "Average Percent Inhibition from 1.1 to 6.6 Hours", "setting": "Type II Collagen 0.18 ug/ml", "value": 0, "unit": "%"}, {"measurement": "Average Percent Inhibition from 1.1 to 6.6 Hours", "setting": "Type II Collagen 0.54 ug/ml", "value": 3, "unit": "%"}, {"measurement": "Average Percent Inhibition from 1.1 to 6.6 Hours", "setting": "Type II Collagen 1.63 ug/ml", "value": 0, "unit": "%"}, {"measurement": "Average Percent Inhibition from 1.1 to 6.6 Hours", "setting": "Type II Collagen 4.89 ug/ml", "value": 2, "unit": "%"}, {"measurement": "Average Percent Inhibition from 1.1 to 6.6 Hours", "setting": "Type II Collagen 14.67 ug/ml", "value": 10, "unit": "%"}, {"measurement": "Average Percent Inhibition from 1.1 to 6.6 Hours", "setting": "Type II Collagen 44.00 ug/ml", "value": 15, "unit": "%"}, {"measurement": "Average Percent Inhibition", "setting": "TypeIICOL(1.6 ug/ul), FISb3, hour 0.10 to 1.10", "value": 19, "unit": "%"}, {"measurement": "Average Percent Inhibition", "setting": "TypeIICOL(1.6 ug/ul), FISb3, hour 1.10 to 2.10", "value": 6, "unit": "%"}, {"measurement": "Average Percent Inhibition", "setting": "TypeIICOL(1.6 ug/ul), FISb3, hour 1.10 to 6.60", "value": 0, "unit": "%"}, {"measurement": "Average Percent Inhibition", "setting": "TypeIICOL(1.6 ug/ul), FISb3, hour 2.10 to 3.10", "value": 0, "unit": "%"}, {"measurement": "Average Percent Inhibition", "setting": "TypeIICOL(1.6 ug/ul), FISb3, hour 3.10 to 4.10", "value": "−2", "unit": "%"}, {"measurement": "Average Percent Inhibition", "setting": "TypeIICOL(1.6 ug/ul), FISb3, hour 4.10 to 5.10", "value": "−3", "unit": "%"}, {"measurement": "Average Percent Inhibition", "setting": "TypeIICOL(1.6 ug/ul), FISb3, hour 5.10 to 6.10", "value": "−4", "unit": "%"}, {"measurement": "Average Percent Inhibition", "setting": "TypeIICOL(4.9 ug/ul), FISb3, hour 0.10 to 1.10", "value": 37, "unit": "%"}, {"measurement": "Average Percent Inhibition", "setting": "TypeIICOL(4.9 ug/ul), FISb3, hour 1.10 to 2.10", "value": 13, "unit": "%"}, {"measurement": "Average Percent Inhibition", "setting": "TypeIICOL(4.9 ug/ul), FISb3, hour 1.10 to 6.60", "value": 2, "unit": "%"}, {"measurement": "Average Percent Inhibition", "setting": "TypeIICOL(4.9 ug/ul), FISb3, hour 2.10 to 3.10", "value": 3, "unit": "%"}, {"measurement": "Average Percent Inhibition", "setting": "TypeIICOL(4.9 ug/ul), FISb3, hour 3.10 to 4.10", "value": 0, "unit": "%"}, {"measurement": "Average Percent Inhibition", "setting": "TypeIICOL(4.9 ug/ul), FISb3, hour 4.10 to 5.10", "value": "−2", "unit": "%"}, {"measurement": "Average Percent Inhibition", "setting": "TypeIICOL(4.9 ug/ul), FISb3, hour 5.10 to 6.10", "value": "−4", "unit": "%"}, {"measurement": "Average Percent Inhibition", "setting": "TypeIICOL(15 ug/ul), FISb3, hour 0.10 to 1.10", "value": 44, "unit": "%"}, {"measurement": "Average Percent Inhibition", "setting": "TypeIICOL(15 ug/ul), FISb3, hour 1.10 to 2.10", "value": 21, "unit": "%"}, {"measurement": "Average Percent Inhibition", "setting": "TypeIICOL(15 ug/ul), FISb3, hour 1.10 to 6.60", "value": 10, "unit": "%"}, {"measurement": "Average Percent Inhibition", "setting": "TypeIICOL(15 ug/ul), FISb3, hour 2.10 to 3.10", "value": 12, "unit": "%"}, {"measurement": "Average Percent Inhibition", "setting": "TypeIICOL(15 ug/ul), FISb3, hour 3.10 to 4.10", "value": 8, "unit": "%"}, {"measurement": "Average Percent Inhibition", "setting": "TypeIICOL(15 ug/ul), FISb3, hour 4.10 to 5.10", "value": 6, "unit": "%"}, {"measurement": "Average Percent Inhibition", "setting": "TypeIICOL(15 ug/ul), FISb3, hour 5.10 to 6.10", "value": 4, "unit": "%"}, {"measurement": "Average Percent Inhibition", "setting": "TypeIICOL(44 ug/ul), FISb3, hour 0.10 to 1.10", "value": 50, "unit": "%"}, {"measurement": "Average Percent Inhibition", "setting": "TypeIICOL(44 ug/ul), FISb3, hour 1.10 to 2.10", "value": 29, "unit": "%"}, {"measurement": "Average Percent Inhibition", "setting": "TypeIICOL(44 ug/ul), FISb3, hour 1.10 to 6.60", "value": 15, "unit": "%"}, {"measurement": "Average Percent Inhibition", "setting": "TypeIICOL(44 ug/ul), FISb3, hour 2.10 to 3.10", "value": 18, "unit": "%"}, {"measurement": "Average Percent Inhibition", "setting": "TypeIICOL(44 ug/ul), FISb3, hour 3.10 to 4.10", "value": 12, "unit": "%"}, {"measurement": "Average Percent Inhibition", "setting": "TypeIICOL(44 ug/ul), FISb3, hour 4.10 to 5.10", "value": 9, "unit": "%"}, {"measurement": "Average Percent Inhibition", "setting": "TypeIICOL(44 ug/ul), FISb3, hour 5.10 to 6.10", "value": 7, "unit": "%"}, {"measurement": "Average Percent Inhibition", "setting": "TypeIICOL(.18 ug/ul), FISb3, hour 0.10 to 1.10", "value": 17, "unit": "%"}, {"measurement": "Average Percent Inhibition", "setting": "TypeIICOL(.18 ug/ul), FISb3, hour 1.10 to 2.10", "value": 3, "unit": "%"}, {"measurement": "Average Percent Inhibition", "setting": "TypeIICOL(.18 ug/ul), FISb3, hour 1.10 to 6.60", "value": 0, "unit": "%"}, {"measurement": "Average Percent Inhibition", "setting": "TypeIICOL(.18 ug/ul), FISb3, hour 2.10 to 3.10", "value": 0, "unit": "%"}, {"measurement": "Average Percent Inhibition", "setting": "TypeIICOL(.18 ug/ul), FISb3, hour 3.10 to 4.10", "value": "−1", "unit": "%"}, {"measurement": "Average Percent Inhibition", "setting": "TypeIICOL(.18 ug/ul), FISb3, hour 4.10 to 5.10", "value": "−1", "unit": "%"}, {"measurement": "Average Percent Inhibition", "setting": "TypeIICOL(.18 ug/ul), FISb3, hour 5.10 to 6.10", "value": "−1", "unit": "%"}, {"measurement": "Average Percent Inhibition", "setting": "TypeIICOL(.55 ug/ul), FISb3, hour 0.10 to 1.10", "value": 15, "unit": "%"}, {"measurement": "Average Percent Inhibition", "setting": "TypeIICOL(.55 ug/ul), FISb3, hour 1.10 to 2.10", "value": 6, "unit": "%"}, {"measurement": "Average Percent Inhibition", "setting": "TypeIICOL(.55 ug/ul), FISb3, hour 1.10 to 6.60", "value": 3, "unit": "%"}, {"measurement": "Average Percent Inhibition", "setting": "TypeIICOL(.55 ug/ul), FISb3, hour 2.10 to 3.10", "value": 3, "unit": "%"}, {"measurement": "Average Percent Inhibition", "setting": "TypeIICOL(.55 ug/ul), FISb3, hour 3.10 to 4.10", "value": 2, "unit": "%"}, {"measurement": "Average Percent Inhibition", "setting": "TypeIICOL(.55 ug/ul), FISb3, hour 4.10 to 5.10", "value": 1, "unit": "%"}, {"measurement": "Average Percent Inhibition", "setting": "TypeIICOL(.55 ug/ul), FISb3, hour 5.10 to 6.10", "value": 1, "unit": "%"}, {"measurement": "inhibition of collagenase 1 by type II collagen", "setting": "early timepoints, FlSub3", "value": "small but significant inhibition"}]}
